According to US20250277030A1 (Zymeworks, published 2025):
Read-outs that look alike come from different tables or passages of the source.

T1: cynomolgus monkey NaPi2b (cynomolgus monkey, UniProt O95436 1-690 (human entry))
T1 construct: Transiently expressed on HEK293-6e cells; also called Cyno NaPi2b
T1 chain: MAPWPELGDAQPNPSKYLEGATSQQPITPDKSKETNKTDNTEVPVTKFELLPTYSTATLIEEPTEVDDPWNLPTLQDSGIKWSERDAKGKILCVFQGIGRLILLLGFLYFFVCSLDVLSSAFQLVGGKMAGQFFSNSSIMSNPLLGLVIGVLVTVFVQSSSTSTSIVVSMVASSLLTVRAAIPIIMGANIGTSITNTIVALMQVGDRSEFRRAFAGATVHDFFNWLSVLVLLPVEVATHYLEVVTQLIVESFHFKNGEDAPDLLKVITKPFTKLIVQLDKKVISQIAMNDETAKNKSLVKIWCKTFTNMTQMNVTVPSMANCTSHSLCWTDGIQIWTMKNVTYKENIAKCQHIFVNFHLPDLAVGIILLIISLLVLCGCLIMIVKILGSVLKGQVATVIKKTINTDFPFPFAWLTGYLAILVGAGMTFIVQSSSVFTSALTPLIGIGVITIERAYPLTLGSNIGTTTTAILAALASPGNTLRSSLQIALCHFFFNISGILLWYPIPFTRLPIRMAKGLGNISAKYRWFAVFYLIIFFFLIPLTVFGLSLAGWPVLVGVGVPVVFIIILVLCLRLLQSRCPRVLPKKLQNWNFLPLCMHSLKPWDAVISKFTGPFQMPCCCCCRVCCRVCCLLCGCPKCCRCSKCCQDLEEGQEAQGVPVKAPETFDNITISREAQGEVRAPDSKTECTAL

T2: mouse NaPi2b (mouse, UniProt Q9DBP0 1-697)
T2 construct: Transiently expressed on HEK293-6e cells; also called Ms NaPi2b
T2 sequence: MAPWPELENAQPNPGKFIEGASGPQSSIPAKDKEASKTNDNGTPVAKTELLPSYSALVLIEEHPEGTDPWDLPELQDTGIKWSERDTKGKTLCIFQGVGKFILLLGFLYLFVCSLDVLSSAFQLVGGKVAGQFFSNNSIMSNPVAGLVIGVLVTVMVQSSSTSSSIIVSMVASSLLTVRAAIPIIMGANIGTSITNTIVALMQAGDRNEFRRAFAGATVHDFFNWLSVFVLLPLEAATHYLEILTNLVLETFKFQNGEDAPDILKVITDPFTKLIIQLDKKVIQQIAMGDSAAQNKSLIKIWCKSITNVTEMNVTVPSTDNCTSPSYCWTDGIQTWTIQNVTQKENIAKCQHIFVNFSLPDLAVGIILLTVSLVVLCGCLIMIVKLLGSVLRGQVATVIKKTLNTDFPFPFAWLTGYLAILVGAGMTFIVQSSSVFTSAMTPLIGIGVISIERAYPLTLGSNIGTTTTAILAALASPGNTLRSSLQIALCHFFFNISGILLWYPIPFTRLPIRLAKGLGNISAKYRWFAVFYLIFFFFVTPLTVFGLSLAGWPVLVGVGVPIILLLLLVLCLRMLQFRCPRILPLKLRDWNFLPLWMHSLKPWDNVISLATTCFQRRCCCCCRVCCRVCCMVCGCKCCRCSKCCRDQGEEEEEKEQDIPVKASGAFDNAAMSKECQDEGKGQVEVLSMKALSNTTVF

T3: human sodium-dependent phosphate transporter 2B (NaPi2b) (human, UniProt O95436 1-690)
T3 construct: UniProt ID is given as 095436 [sic]; also called hNaPi2b; Hu NaPi2b
T3 sequence: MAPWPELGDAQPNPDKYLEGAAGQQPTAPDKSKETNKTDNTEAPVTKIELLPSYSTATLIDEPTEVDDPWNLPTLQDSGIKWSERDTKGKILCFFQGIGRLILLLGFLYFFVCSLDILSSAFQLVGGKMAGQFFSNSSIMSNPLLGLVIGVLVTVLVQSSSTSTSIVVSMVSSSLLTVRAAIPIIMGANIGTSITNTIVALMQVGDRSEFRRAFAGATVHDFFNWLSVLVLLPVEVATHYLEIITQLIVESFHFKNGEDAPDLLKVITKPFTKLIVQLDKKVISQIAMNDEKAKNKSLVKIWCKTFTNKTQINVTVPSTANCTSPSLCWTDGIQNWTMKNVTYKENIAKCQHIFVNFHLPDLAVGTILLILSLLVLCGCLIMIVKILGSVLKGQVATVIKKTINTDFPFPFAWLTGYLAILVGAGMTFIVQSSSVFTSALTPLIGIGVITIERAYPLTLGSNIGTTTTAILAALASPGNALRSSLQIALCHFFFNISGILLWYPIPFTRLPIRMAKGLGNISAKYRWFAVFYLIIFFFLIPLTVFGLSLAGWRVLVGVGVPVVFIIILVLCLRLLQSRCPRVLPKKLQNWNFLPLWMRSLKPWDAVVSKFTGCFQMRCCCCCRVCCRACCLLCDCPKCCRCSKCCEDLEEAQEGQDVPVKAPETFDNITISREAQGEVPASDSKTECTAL

B1: v22277, palivizumab (anti-RSV) negative control (antibody, human IgG1, kappa)
heavy 1: GQVTLRESGPALVKPTQTLTLTCTFSGFSLSTSGMSVGWIRQPPGKALEWLADIWWDDKKDYNPSLKSRLTISKDTSKNQVVLKVTNMDPADTATYYCARSMITNWYFDVWGAGTTVTVSSASTKGPSVFPLAPSSKSTSGGTAALGCLVKDYFPEPVTVSWNSGALTSGVHTFPAVLQSSGLYSLSSVVTVPSSSLGTQTYICNVNHKPSNTKVDKKVEPKSCDKTHTCPPCPAPELLGGPSVFLFPPKPKDTLMISRTPEVTCVVVDVSHEDPEVKFNWYVDGVEVHNAKTKPREEQYNSTYRVVSVLTVLHQDWLNGKEYKCKVSNKALPAPIEKTISKAKGQPREPQVYVYPPSRDELTKNQVSLTCLVKGFYPSDIAVEWESNGQPENNYKTTPPVLDSDGSFALVSKLTVDKSRWQQGNVFSCSVMHEALHNHYTQKSLSLSPG
heavy 2: not shown
light: GDIQMTQSPSTLSASVGDRVTITCKSQLSVGYMHWYQQKPGKAPKLLIYDTSKLASGVPSRFSGSGSGTEFTLTISSLQPDDFATYYCFQGSGYPFTFGGGTKLEIKRTVAAPSVFIFPPSDEQLKSGTASVVCLLNNFYPREAKVQWKVDNALQSGNSQESVTEQDSKDSTYSLSSTLTLSKADYEKHKVYACEVTHQGLSSPVTKSFNRGEC
notes: Heterodimeric Fc form of palivizumab (clones CL_#11009, CL_#11010, CL_#16635); also called neg control
B2: v18992, reference anti-NaPi2b antibody MX35 (antibody, human IgG1, kappa)
heavy 1: GQVQLVQSGAEVVKPGASVKMSCKASGYTFTGYNIHWVKQAPGQGLEWIGAIYPGNGDTSYKQKFRGRATLTADTSTSTVYMELSSLRSEDSAVYYCARGETARATFAYWGQGTLVTVSSASTKGPSVFPLAPSSKSTSGGTAALGCLVKDYFPEPVTVSWNSGALTSGVHTFPAVLQSSGLYSLSSVVTVPSSSLGTQTYICNVNHKPSNTKVDKKVEPKSCDKTHTCPPCPAPELLGGPSVFLFPPKPKDTLMISRTPEVTCVVVDVSHEDPEVKFNWYVDGVEVHNAKTKPREEQYNSTYRVVSVLTVLHQDWLNGKEYKCKVSNKALPAPIEKTISKAKGQPREPQVYVYPPSRDELTKNQVSLTCLVKGFYPSDIAVEWESNGQPENNYKTTPPVLDSDGSFALVSKLTVDKSRWQQGNVFSCSVMHEALHNHYTQKSLSLSPG
heavy 2: not shown
light: GDIQMTQSPSSLSASVGDRVTITCSASQDIGNFLNWYQQKPGKTVKVLIYYTSSLYSGVPSRFSGSGSGTDYTLTISSLQPEDFATYYCQQYSKLPLTFGQGTKLELKRTVAAPSVFIFPPSDEQLKSGTASVVCLLNNFYPREAKVQWKVDNALQSGNSQESVTEQDSKDSTYSLSSTLTLSKADYEKHKVYACEVTHQGLSSPVTKSFNRGEC

Assays:
cynomolgus monkey NaPi2b [1] = biological target: T1, cynomolgus monkey NaPi2b; test: flow cytometry on HEK293-6e cells transiently expressing cynomolgus NaPi2b, 4 C, anti-human IgG Fc AF647 detection
mouse NaPi2b [2] = biological target: T2, mouse NaPi2b; test: flow cytometry on HEK293-6e cells transiently expressing mouse NaPi2b, 4 C, anti-human IgG Fc AF647 detection
[3] = biological target: T3, human sodium-dependent phosphate …; test: flow cytometry, HEK293-6e cells transfected with human NaPi2b
Method: (§1) The binding cross-reactivity of humanized antibody variant v29456 to human, cynomolgus and mouse NaPi2b was assessed by flow cytometry using HEK293-6e transfected cells.
(§2) Briefly, HEK293-6e cells were transfected for ˜24 hours to transiently express human NaPi2b, cynomolgus or mouse NaPi2b, at 1 μg of DNA per 1 million cells. Following transfection, 50,000 cells per well were seeded in V-bottom 96-well plates and incubated with 200 nM of primary antibody for 18-24 hours at 4° C. to prevent internalization. Post-incubation, cells were washed and stained with anti-Human IgG Fc AF647 conjugate (Jackson Immuno Research Labs, West Grove, PA, Cat. No. 109-605-098, Lot. No. 124868) at 4° C. for 1 hour. Following staining and washing, fluorescence was detected by flow cytometry on BD LSRFortessa™ Cell Analyzer (BD Biosciences, Franklin Lake, NJ) with 10,000 minimum events collected per well. The AF647/APC-A GeoMean (fluorescence signal geometric mean, proportional to anti-Human AF647 binding) was calculated for the live singlet cell population for each primary antibody using FlowJo™ v8 software (BD Biosciences, Franklin Lake, NJ). The Bmax and Kd of each primary antibody were calculated using GraphPad Prism Version 9 (GraphPad Software, San Diego, CA)

[4] = biological target: T3, human sodium-dependent phosphate …; test: flow cytometry, HEK293-6e cells transfected with human NaPi2b; apparent Kd
Method: as §1, §2

mouse NaPi2b [5] = biological target: T2, mouse NaPi2b; test: flow cytometry, HEK293-6e cells transfected with mouse NaPi2b; apparent Kd above the highest concentration tested
cynomolgus monkey NaPi2b [6] = biological target: T1, cynomolgus monkey NaPi2b; test: flow cytometry, HEK293-6e cells transfected with cynomolgus NaPi2b; apparent Kd
Method: as §1, §2

[7] = biological target: T3, human sodium-dependent phosphate …; test: flow cytometry, HEK293-6e cells transfected with human NaPi2b; apparent Kd; remark: listed apart in the source
Method: The binding cross-reactivity of humanized antibody variant v38591 to human NaPi2b, NaPi2a, and NaPi2c was assessed by flow cytometry using HEK293-6e transfected cells.
Following transfection, cells were seeded at 50,000 cells/well in conical-bottom 96-well plates and treated with test antibody for 24 hours at 4° C. to prevent internalization. Following incubation, cells were washed and stained with anti-Human IgG Fc AF647 conjugate (Jackson Immuno Research Labs, West Grove, PA; Cat. No. 109-605-098) or anti-Rabbit IgG F(ab″)2 AF647 conjugate (Jackson Immuno Research Labs, West Grove, PA; Cat. No. 111-605-047). Following incubation and washing, fluorescence was detected by flow cytometry on a BD LSRFortessa™ Cell Analyzer (BD Biosciences, Franklin Lake, NJ) with 1,000 minimum events collected per well. The AF647/APC-A GeoMean (fluorescence signal geometric mean, proportional to anti-Human AF647 binding) was calculated for the live cell population using FlowJo™ Version 10.8.1 (BD Biosciences, Franklin Lake, NJ) and plotted for each test antibody using GraphPad Prism Version 9 (GraphPad Software, San Diego, CA).

cynomolgus monkey NaPi2b [8] = biological target: T1, cynomolgus monkey NaPi2b; test: flow cytometry, HEK293-6e cells transfected with cynomolgus NaPi2b
Method: as §1, §2

Binder | binding result (cynomolgus monkey NaPi2b [1]) | binding result (mouse NaPi2b [2]) | Bmax (APC-A GeoMean) [3] [APC-A GeoMean] | Kd [4] [nM] | Kd (mouse NaPi2b [5]) [nM] | Kd (cynomolgus monkey NaPi2b [6]) [nM] | Kd [7] [nM] | Bmax (APC-A GeoMean) (cynomolgus monkey NaPi2b [8])
B1 | no binding (tested: about 200 nM) | no binding (tested: about 200 nM) |  |  |  |  |  | 
B2 |  |  | 1900 | 1.98 | > 200 | 31 | 1.51 | 2360
